# Laboratory results from patent US20120165211A1, “Human Antibodies Cross-Reacting With A Bacterial And A Self Antigen From Atherosclerotic Plaques” (priority 2007, published 2012).
# Entries after “also recorded” stand apart in the source; their conditions may differ.
# Columns and labels:
# Type in all cases: binding
# [1] = target: T1, recombinant transgelin (rTAGLN) (Homo sapiens, UniProt Q01995); conditions: 4-500 ng rTAGLN per well
# T1 construct: purchased Origene TP302448
# purified OmpK36 = target: T2, purified OmpK36 (Klebsiella pneumoniae, UniProt Q48473); assay: Western blot of purified OmpK36 with recombinant Fabs; conditions: 400 ng OmpK36His per lane; Fabs at 10 μg/L; blocking PBS/BSA10%
# T2 construct: made in house; host or cells: E. coli BL21 (DE3), pET28b (BamHI/XhoI cloning)
# Description: 400 ng of purified OmpK36His was loaded on polyacrylamide gel (all lanes) and SDS-PAGE was performed. Proteins were blotted on PVDF membrane for 2 h at 350 mA. After blocking with PBS/BSA10% the membrane was cut to single lanes and each lane was incubated for 1 h with Fabs at 10 μg/L. After three washes membrane was incubated with anti-Human Light Chain K antibody (Sigma).
# transgelin 1 (SM22) = target: T3, transgelin 1 (SM22) (Homo sapiens, UniProt Q01995); assay: 2D electrophoresis Western blotting on plaque lysate and MALDI-ToF identification of the recognized antigen; conditions: two distinct spots of the 2D gel; confirmed by protein sequencing
# T3 construct: A piece of the coronary plaque was weighted (65 mg), cut in small fragments and directly smashed with a Dounce; from tissue; host or cells: human coronary atherosclerotic plaque
# T3 sequence (Q01995 whole entry, the tested form may be a part): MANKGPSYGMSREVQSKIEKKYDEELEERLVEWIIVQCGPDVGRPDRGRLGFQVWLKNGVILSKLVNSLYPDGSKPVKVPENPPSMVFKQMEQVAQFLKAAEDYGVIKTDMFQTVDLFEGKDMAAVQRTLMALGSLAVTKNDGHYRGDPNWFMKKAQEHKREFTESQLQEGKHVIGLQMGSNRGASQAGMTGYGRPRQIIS
# Description: A piece of the coronary plaque was weighted (65 mg), cut in small fragments and directly smashed with a Dounce in 500 μl of the R5 buffer, containing: urea 8M, thiourea 2M, CHAPS 4%, Zwittergent 0.05%, 40 mM trizma base and a cocktail of protease inhibitors. The lysate was then sonicated for 5 minutes and centrifuged at 13,000 rpm for 30 minutes at 15° C. Supernatant protein content was evaluated by Bradford assay, using BSA dissolved in the same buffer, as standard. The proteins (200 μg), dissolved in R5 buffer (final volume 130 μl), were added to DeStreak (100 mM) and 2% IPG buffer pH 3-10NL, prior to loading the sample on strip pH 3-10NL, 7 cm. Total focusing run for the 1st dimension was 50,000 Vh. The 2nd dimension was carried out using 12.5% acrylamide SDS-PAGE. MW Standard proteins were run on the same gel. The gel was stained with colloidal Coomassie Brilliant Blue (cCBB). […]
# Protein corresponding to positive spots in WB were excised from the gel, destained, reduced with DTE (10 mM in ammonium bicarbonate 25 mM) at 56° C. for 30 minutes, alkylated with IAA (55 mM in ammonium bicarbonate 25 mM) in the dark at room temperature for 20 minutes. They were digested with trypsin and directly analysed by MALDI-ToF mass spectrometry, using alpha-cyano-4-hydroxycinnamic acid as matrix. […]
# [2] = tested on: antigen present in Klebsiella pneumoniae; assay: Western blot assay on pathogen lysates; conditions: Fab 10 μg/ml; 8 μg total protein lysate per well
# Description: (§1) Bacterial cell lysates were carried out inoculating a colony or a scratch in 10 ml of SB and growing bacteria at 37° C. overnight. Cultures of Staphylococcus aureus, Proteus mirabilis, Klebsiella pneumoniae, Enterococcus cloacae, Streptococcus pyogenes, Neisseriae gonhorreae, Listeria monocytogenes were grown. Overnight cultures were harvested by centrifugation (4500 RPM for 10 min.) and then resuspended in 1 ml of RIPA buffer and protease inhibitor PMSF (1 mM final). After three cycles of freeze-and-thawing (37° C. and −80° C.) and one cycle of sonication (90 sec at max power) the lysate was cleared by centrifugation (15000 RPM at 4° C. for 20 min) Moreover one colony of Haemophilus influenzae was seeded on blood agar plates and then grown at 37° C. overnight. Haemophilus inluenzae colonies were collected and resuspended in 500 μl of RIPA/PMSF. All lysates were stored at −20° C. until usage.
# (§2) Lysates from Listeria monocitogenes, Streptococcus pyogenes, Staphylococcus aureus, Enterococcus cloacae, Haemophilus influenzae, Proteus mirabilis, Escherichia coli, Klebsiella pneumoniae, were prepared as described in Example II. SDS-PAGE was performed according to standard techniques. Briefly, protein concentration of all lysates was determined by BCA kit (Pierce) according to manufacturer instruction. SDS-PAGE loading buffer was added to protein lysates before heating at 90° C. for 5 min. […]
# [3] = tested on: antigen present in Proteus mirabilis; assay: Western blot assay on pathogen lysates; conditions: Fab 10 μg/ml; 8 μg total protein lysate per well
# Description: as §1, §2
# T1 sequence (Q01995 whole entry): as the sequence (Q01995 whole entry, the tested form may be a part) above
molecule,measurement,setting,value
"Fab7816: human recombinant Fab from coronary plaque library ID11LIB; heavy chain SEQ ID NO:2, light chain SEQ ID NO:4 (antibody, listed as Homo sapiens, V domains shown) VH: LESGPGQVKPSQTLSLTCTVSGGSIGSGSYSWNWIRQPAGRGLEWIGRISDSGNTNFNPSLKSRVTMSVDTSKNQFALKLTSVTAADTATYFCARGRGILTGLFDYWGQGSLVSVSSASTKGPSVFPLAPSSKSTSGGTAALGCLVKD VL: SPDSLAVSPGGRATIKCASSQSVLDNSNHKNSLAWYQQKPGLPPKLLIYWASTRYSGVPDRFSGSGSGTDFTLTINNLQAADVAVYFCQQYYSTPWTFGQGTKVE",binding to human transgelin in Western blot,[1],recognize human transgelin
same,reactivity with purified OmpK36 in western-blot,purified OmpK36,react with purified OmpK36
same,"self antigen recognized in plaque lysate (2DE-WB spots, mass spectrometry)",transgelin 1 (SM22),transgelin 1 (SM22) was unequivocally identified as the putative natural (self) antigen
same,binding in Western blot on Klebsiella pneumoniae lysate,[2],binds specifically; also recorded: recognizes with high specificity and affinity
same,binding in Western blot on Proteus mirabilis lysate,[3],binds specifically; also recorded: recognizes with high specificity and affinity
